The source of these data is PMC10999750.

Common to all, as to assay: fluorescence polarisation; FITC-tagged peptide ('2 nm' [sic]) with importin two-fold serially diluted from 4.5 µM across 23 wells, 200 µl, GST Buffer A (50 mM Tris, 125 mM NaCl); three independent experiments
The target in assay [1] is Synthetic FITC labelled AAV 09YN Cap-BR peptide (residues 117-167).
The target of assay [2] is AAV 09YN Cap-BR-mMAJOR (FITC labelled peptide, residues 117-167, major site mutant).
For assay [3], the target named is AAV 09YN Cap-BR-mMINOR+mMAJOR (FITC labelled peptide, residues 117-167, minor and major site mutant).
Assay [4] deals with AAV 09YN Cap-BR-mMINOR (FITC labelled peptide, residues 117-167, minor site mutant).

As for “Human importin α1 lacking the IBB domain (hImpα1DIBB) (domain or fragment)”, the Kd in assay [1] was 483 nM.

“Human importin β (hImpβ) (from UniProt Q14974 1-876) (natural protein)”: the Kd in assay [1] worked out at 1140 nM.

As for “Human importin α5 lacking the IBB domain (hImp5DIBB) (domain or fragment)”, the Kd in assay [1] worked out at 862 nM.

For “Human importin α3 lacking the IBB domain (hImpα3DIBB) (domain or fragment)”, the dissociation constant (Kd) stood at 1.2 nM in assay [2], 1.4 nM in assay [3], 1.6 nM in assay [4] and 1 nM in assay [1].

With “Human importin α7 lacking the IBB domain (hImpα7DIBB) (domain or fragment)”, the Kd in assay [1] turned out to be 11 nM.

What is called Kd is a measure of binding affinity in units of concentration. Lower therefore signals a tighter complex.
